The text below walks through data of article PMC9482650, “Quantitative fragmentomics allow affinity mapping of interactomes” (Nature Communications, 2022).

GRIP2_7, Q9C0E4, sequence (Q9C0E4 934-1023): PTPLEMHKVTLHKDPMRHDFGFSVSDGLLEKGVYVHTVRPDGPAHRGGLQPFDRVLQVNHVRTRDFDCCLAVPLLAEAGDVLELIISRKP
GORASP1, Q9BQQ3, sequence (Q9BQQ3 1-208): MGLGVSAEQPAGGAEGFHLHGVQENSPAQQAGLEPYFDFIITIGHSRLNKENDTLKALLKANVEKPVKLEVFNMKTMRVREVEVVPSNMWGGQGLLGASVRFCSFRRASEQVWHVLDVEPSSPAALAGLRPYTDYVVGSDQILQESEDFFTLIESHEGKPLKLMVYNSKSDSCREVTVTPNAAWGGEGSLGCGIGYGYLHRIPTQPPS
GRIP2_6, Q9C0E4, sequence (Q9C0E4 648-740): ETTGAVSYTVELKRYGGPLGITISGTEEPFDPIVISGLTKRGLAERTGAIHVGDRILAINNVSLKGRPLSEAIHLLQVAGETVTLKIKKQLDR

In one test the target is T1, APBA2_1, Q99767.
T1 sequence (Q99767 563-664, limits assumed, looked up): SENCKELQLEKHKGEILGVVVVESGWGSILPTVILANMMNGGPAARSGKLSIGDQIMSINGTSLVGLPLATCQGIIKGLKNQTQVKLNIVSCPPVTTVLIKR
Briefly: holdup assay. Details: key: below the threshold = too weak to quantify, mostly under pKd 3.1 to 4. Conditions: plain residues with an end cap or a label only (N-terminal biotin on a linker: ado-ado).
With EEDTAEKDEL [HSPA5, P11021], the pKd entry is listed as “below the threshold”.

As to PLDSQQHTEV [FAT1, Q14517], the pKd result is on record as “below the threshold”.

For a further test, the target named is PARD3_3, Q8TEW0. Briefly: holdup assay. The note with it: plain residues with an end cap or a label only (N-terminal biotin on a linker: ado-ado). More on the design: key: below the threshold = too weak to quantify, mostly under pKd 3.1 to 4.
PARD3_3, Q8TEW0, sequence (Q8TEW0 582-685): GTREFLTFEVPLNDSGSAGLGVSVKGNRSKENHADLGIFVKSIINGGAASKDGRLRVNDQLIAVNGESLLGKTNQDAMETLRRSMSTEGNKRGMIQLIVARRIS
Take EEDTAEKDEL [HSPA5, P11021]: the pKd result is listed as “below the threshold”.

Take PLDSQQHTEV [FAT1, Q14517]: the pKd entry is “below the threshold”.

Another test deals with DLG1_3, Q12959. Briefly: holdup assay. More on the design: key: below the threshold = too weak to quantify, mostly under pKd 3.1 to 4. The note with it: plain residues with an end cap or a label only (N-terminal biotin on a linker: ado-ado).
DLG1_3, Q12959, sequence (Q12959 457-571): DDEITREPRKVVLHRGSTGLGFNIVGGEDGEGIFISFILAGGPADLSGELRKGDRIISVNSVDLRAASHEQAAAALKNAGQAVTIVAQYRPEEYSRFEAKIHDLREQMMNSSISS
As for EEDTAEKDEL [HSPA5, P11021], the negative logarithm of the Kd (pKd) was determined as 3.77.

Turning to PLDSQQHTEV [FAT1, Q14517], the pKd result is listed as “below the threshold”.

For a further test, the target named is MAGI1_1, Q96QZ7. Briefly: holdup assay. Details: key: below the threshold = too weak to quantify, mostly under pKd 3.1 to 4. The note with it: plain residues with an end cap or a label only (N-terminal biotin on a linker: ado-ado).
MAGI1_1, Q96QZ7, sequence (Q96QZ7 1-106): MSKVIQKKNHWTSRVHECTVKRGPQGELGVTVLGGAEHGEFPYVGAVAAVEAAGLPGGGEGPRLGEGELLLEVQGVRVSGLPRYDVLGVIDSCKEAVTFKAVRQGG
EEDTAEKDEL [HSPA5, P11021]: the pKd came to 3.51.

Regarding PLDSQQHTEV [FAT1, Q14517], the pKd result is “below the threshold”.

The next test addresses T2, MPDZ_5, O75970.
T2 sequence (O75970 695-796, limits assumed, looked up): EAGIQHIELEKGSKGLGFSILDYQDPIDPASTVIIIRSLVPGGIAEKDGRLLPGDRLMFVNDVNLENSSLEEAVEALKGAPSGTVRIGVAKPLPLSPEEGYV
Briefly: holdup assay. Details: key: below the threshold = too weak to quantify, mostly under pKd 3.1 to 4. The note with it: plain residues with an end cap or a label only (N-terminal biotin on a linker: ado-ado).
For the molecule EEDTAEKDEL [HSPA5, P11021], the pKd entry was “below the threshold”.

Take PLDSQQHTEV [FAT1, Q14517]: the pKd entry was “below the threshold”.

The next test has as its target GORASP1, Q9BQQ3. Briefly: holdup assay. Conditions: plain residues with an end cap or a label only (N-terminal biotin on a linker: ado-ado). Details: key: below the threshold = too weak to quantify, mostly under pKd 3.1 to 4.
On to EEDTAEKDEL [HSPA5, P11021], for which the pKd entry is “below the threshold”.

As to PLDSQQHTEV [FAT1, Q14517], the pKd result was “below the threshold”.

A further test has as its target GOPC, Q9HD26. Briefly: holdup assay. More on the design: key: below the threshold = too weak to quantify, mostly under pKd 3.1 to 4. The note with it: plain residues with an end cap or a label only (N-terminal biotin on a linker: ado-ado).
With EEDTAEKDEL [HSPA5, P11021], the pKd entry is “below the threshold”.

As to PLDSQQHTEV [FAT1, Q14517], the pKd turned out to be 3.81.

In another test the target is T3, GRIP1_2, Q9Y3R0.
T3 sequence (Q9Y3R0 145-248, limits assumed, looked up): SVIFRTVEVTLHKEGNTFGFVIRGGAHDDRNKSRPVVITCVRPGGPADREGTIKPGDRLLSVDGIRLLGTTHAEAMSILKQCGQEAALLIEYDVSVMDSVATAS
Briefly: holdup assay. More on the design: key: below the threshold = too weak to quantify, mostly under pKd 3.1 to 4. Conditions: plain residues with an end cap or a label only (N-terminal biotin on a linker: ado-ado).
EEDTAEKDEL [HSPA5, P11021]: the pKd entry is reported as “below the threshold”.

As for PLDSQQHTEV [FAT1, Q14517], the pKd result was “below the threshold”.

The next test addresses GRIP2_6, Q9C0E4. Briefly: holdup assay. More on the design: key: below the threshold = too weak to quantify, mostly under pKd 3.1 to 4. The note with it: plain residues with an end cap or a label only (N-terminal biotin on a linker: ado-ado).
Consider EEDTAEKDEL [HSPA5, P11021], for which the negative logarithm of the Kd (pKd) entry was “below the threshold”.

PLDSQQHTEV [FAT1, Q14517]: the pKd result is reported as “below the threshold”.

A further test addresses T4, SNTB1, Q13884.
T4 sequence (Q13884 107-205, limits assumed, looked up): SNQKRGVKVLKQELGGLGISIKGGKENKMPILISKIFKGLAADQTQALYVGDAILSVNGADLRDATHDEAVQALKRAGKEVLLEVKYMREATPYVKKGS
Briefly: holdup assay. Details: key: below the threshold = too weak to quantify, mostly under pKd 3.1 to 4. Conditions: plain residues with an end cap or a label only (N-terminal biotin on a linker: ado-ado).
Turning to EEDTAEKDEL [HSPA5, P11021], the pKd entry is given as “below the threshold”.

As to PLDSQQHTEV [FAT1, Q14517], the pKd amounted to 4.32.

For a further test, the target named is Inadl_9, Q8NI35. Briefly: holdup assay. Details: key: below the threshold = too weak to quantify, mostly under pKd 3.1 to 4. Conditions: plain residues with an end cap or a label only (N-terminal biotin on a linker: ado-ado).
Inadl_9, Q8NI35, sequence (Q8NI35 1530-1615): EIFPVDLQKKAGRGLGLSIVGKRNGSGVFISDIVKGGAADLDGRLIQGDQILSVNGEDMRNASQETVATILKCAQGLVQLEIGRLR
With EEDTAEKDEL [HSPA5, P11021], the pKd result is on record as “below the threshold”.

For the molecule PLDSQQHTEV [FAT1, Q14517], the pKd amounted to 3.69.

The next test deals with T5, GRIP1_5, Q9Y3R0.
T5 sequence (Q9Y3R0 568-668, limits assumed, looked up): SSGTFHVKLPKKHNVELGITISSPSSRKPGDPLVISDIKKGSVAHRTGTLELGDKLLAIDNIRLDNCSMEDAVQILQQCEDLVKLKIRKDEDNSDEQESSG
Briefly: holdup assay. Details: key: below the threshold = too weak to quantify, mostly under pKd 3.1 to 4. Conditions: plain residues with an end cap or a label only (N-terminal biotin on a linker: ado-ado).
As for EEDTAEKDEL [HSPA5, P11021], the pKd result is on record as “below the threshold”.

Regarding PLDSQQHTEV [FAT1, Q14517], the pKd entry was “below the threshold”.

The target of another test is T6, APBA3_1, O96018.
T6 sequence (O96018 389-490, limits assumed, looked up): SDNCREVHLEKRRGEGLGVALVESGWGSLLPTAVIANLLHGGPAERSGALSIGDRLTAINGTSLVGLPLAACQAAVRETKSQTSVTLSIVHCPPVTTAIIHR
Briefly: holdup assay. Details: key: below the threshold = too weak to quantify, mostly under pKd 3.1 to 4. Conditions: plain residues with an end cap or a label only (N-terminal biotin on a linker: ado-ado).
For EEDTAEKDEL [HSPA5, P11021], the pKd entry was “below the threshold”.

Turning to PLDSQQHTEV [FAT1, Q14517], the pKd entry is on record as “below the threshold”.

The target of another test is Inadl_8, Q8NI35. Briefly: holdup assay. Details: key: below the threshold = too weak to quantify, mostly under pKd 3.1 to 4. Conditions: plain residues with an end cap or a label only (N-terminal biotin on a linker: ado-ado).
Inadl_8, Q8NI35, sequence (Q8NI35 1425-1530): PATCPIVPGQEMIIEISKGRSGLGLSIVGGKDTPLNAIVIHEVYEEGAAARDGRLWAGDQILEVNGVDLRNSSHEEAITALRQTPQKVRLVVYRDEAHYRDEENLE
For the molecule EEDTAEKDEL [HSPA5, P11021], the pKd entry was “below the threshold”.

For the molecule PLDSQQHTEV [FAT1, Q14517], the pKd entry is listed as “below the threshold”.

A further test has as its target DLG2_3, Q15700. Briefly: holdup assay. Details: key: below the threshold = too weak to quantify, mostly under pKd 3.1 to 4. The note with it: plain residues with an end cap or a label only (N-terminal biotin on a linker: ado-ado).
With EEDTAEKDEL [HSPA5, P11021], the pKd result is given as “below the threshold”.

PLDSQQHTEV [FAT1, Q14517]: the pKd result was “below the threshold”.

The target in the next test is T7, SNTG2, Q9NY99.
T7 sequence (Q9NY99 68-166, limits assumed, looked up): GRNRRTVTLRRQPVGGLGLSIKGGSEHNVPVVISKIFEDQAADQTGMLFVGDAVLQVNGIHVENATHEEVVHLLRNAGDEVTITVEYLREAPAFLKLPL
Briefly: holdup assay. Details: key: below the threshold = too weak to quantify, mostly under pKd 3.1 to 4. Conditions: plain residues with an end cap or a label only (N-terminal biotin on a linker: ado-ado).
Turning to EEDTAEKDEL [HSPA5, P11021], the pKd result is reported as “below the threshold”.

Molecule PLDSQQHTEV [FAT1, Q14517] displayed a pKd of 3.67.

For another test, the target named is AHNAK1, Q09666. Briefly: holdup assay. The note with it: plain residues with an end cap or a label only (N-terminal biotin on a linker: ado-ado). More on the design: key: below the threshold = too weak to quantify, mostly under pKd 3.1 to 4.
AHNAK1, Q09666, sequence (Q09666 4-100): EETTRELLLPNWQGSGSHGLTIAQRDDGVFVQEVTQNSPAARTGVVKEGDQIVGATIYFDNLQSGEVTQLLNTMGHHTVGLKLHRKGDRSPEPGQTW
Turning to EEDTAEKDEL [HSPA5, P11021], the pKd entry is recorded as “below the threshold”.

For PLDSQQHTEV [FAT1, Q14517], the pKd entry is given as “below the threshold”.

A further test addresses GRIP2_7, Q9C0E4. Briefly: holdup assay. Details: key: below the threshold = too weak to quantify, mostly under pKd 3.1 to 4. The note with it: plain residues with an end cap or a label only (N-terminal biotin on a linker: ado-ado).
Regarding EEDTAEKDEL [HSPA5, P11021], the pKd entry is listed as “below the threshold”.

Consider PLDSQQHTEV [FAT1, Q14517], for which the pKd entry is listed as “below the threshold”.

Another test deals with T8, NHERF3_1, Q5T2W1.
T8 sequence (Q5T2W1 4-100, limits assumed, looked up): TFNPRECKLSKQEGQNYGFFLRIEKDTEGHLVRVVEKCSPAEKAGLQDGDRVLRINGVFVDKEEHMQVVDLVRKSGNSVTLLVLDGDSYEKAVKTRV
Briefly: holdup assay. The note with it: plain residues with an end cap or a label only (N-terminal biotin on a linker: ado-ado). More on the design: key: below the threshold = too weak to quantify, mostly under pKd 3.1 to 4.
Take EEDTAEKDEL [HSPA5, P11021]: the pKd entry is given as “below the threshold”.

For the molecule PLDSQQHTEV [FAT1, Q14517], the pKd result was “below the threshold”.

A further test concerns the target T9, TJP3_3, O95049.
T9 sequence (O95049 375-456, limits assumed, looked up): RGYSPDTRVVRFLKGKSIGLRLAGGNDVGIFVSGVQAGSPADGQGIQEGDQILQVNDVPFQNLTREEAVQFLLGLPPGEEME
Briefly: holdup assay. Details: key: below the threshold = too weak to quantify, mostly under pKd 3.1 to 4. Conditions: plain residues with an end cap or a label only (N-terminal biotin on a linker: ado-ado).
As for EEDTAEKDEL [HSPA5, P11021], the pKd entry is on record as “below the threshold”.

PLDSQQHTEV [FAT1, Q14517]: the pKd entry is recorded as “below the threshold”.

For another test, the target named is T10, SHANK1, Q9Y566.
T10 sequence (Q9Y566 658-767, limits assumed, looked up): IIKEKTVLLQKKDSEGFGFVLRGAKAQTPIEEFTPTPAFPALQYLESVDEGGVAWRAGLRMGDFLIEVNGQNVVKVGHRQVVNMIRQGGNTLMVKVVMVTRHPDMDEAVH
Briefly: holdup assay. The note with it: plain residues with an end cap or a label only (N-terminal biotin on a linker: ado-ado). More on the design: key: below the threshold = too weak to quantify, mostly under pKd 3.1 to 4.
As to EEDTAEKDEL [HSPA5, P11021], the pKd result is “below the threshold”.

Take PLDSQQHTEV [FAT1, Q14517]: the pKd entry is “below the threshold”.

The next test addresses T11, APBA1_1, Q02410.
T11 sequence (Q02410 651-752, limits assumed, looked up): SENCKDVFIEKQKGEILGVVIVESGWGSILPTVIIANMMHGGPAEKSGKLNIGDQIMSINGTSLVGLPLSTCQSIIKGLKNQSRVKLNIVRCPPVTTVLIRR
Briefly: holdup assay. Details: key: below the threshold = too weak to quantify, mostly under pKd 3.1 to 4. Conditions: plain residues with an end cap or a label only (N-terminal biotin on a linker: ado-ado).
For EEDTAEKDEL [HSPA5, P11021], the negative logarithm of the Kd (pKd) result is recorded as “below the threshold”.

Take PLDSQQHTEV [FAT1, Q14517]: the pKd entry was “below the threshold”.

A further test concerns the target T12, SNTG1, Q9NSN8.
T12 sequence (Q9NSN8 52-150, limits assumed, looked up): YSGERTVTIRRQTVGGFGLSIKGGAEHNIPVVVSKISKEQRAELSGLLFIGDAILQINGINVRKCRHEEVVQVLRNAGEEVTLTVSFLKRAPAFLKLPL
Briefly: holdup assay. The note with it: plain residues with an end cap or a label only (N-terminal biotin on a linker: ado-ado). Details: key: below the threshold = too weak to quantify, mostly under pKd 3.1 to 4.
Consider EEDTAEKDEL [HSPA5, P11021], for which the negative logarithm of the Kd (pKd) entry is given as “below the threshold”.

As to PLDSQQHTEV [FAT1, Q14517], the negative-log Kd (pKd) turned out to be 4.04.

The target in the next test is GRID2IP_2, A4D2P6. Briefly: holdup assay. Details: key: below the threshold = too weak to quantify, mostly under pKd 3.1 to 4. Conditions: plain residues with an end cap or a label only (N-terminal biotin on a linker: ado-ado).
GRID2IP_2, A4D2P6, sequence (A4D2P6 272-370): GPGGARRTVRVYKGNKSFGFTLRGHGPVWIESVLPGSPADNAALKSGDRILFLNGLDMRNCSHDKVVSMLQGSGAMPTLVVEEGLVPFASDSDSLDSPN
For EEDTAEKDEL [HSPA5, P11021], the pKd entry is given as “below the threshold”.

PLDSQQHTEV [FAT1, Q14517] had a pKd of 3.84.

Usually pKd stands for the Kd on a negative log10 scale, so that one unit is a factor of ten.
